According to PMC3589550:

Target: HAUSP^62–205 (HAUSP TRAF domain) (UniProt Q93009)
Assay: ITC

Sequence of HAUSP^62–205 (HAUSP TRAF domain) (Q93009 62-205): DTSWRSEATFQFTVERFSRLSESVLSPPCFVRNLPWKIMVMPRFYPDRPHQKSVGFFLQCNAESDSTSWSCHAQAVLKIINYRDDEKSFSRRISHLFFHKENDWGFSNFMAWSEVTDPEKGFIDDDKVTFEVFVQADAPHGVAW

Substance | Ka
p53^350–364 peptide (from UniProt P04637 350-364) | 65000 M⁻¹
p53^355–369 peptide (from UniProt P04637 355-369) | 67000 M⁻¹
